Laboratory results: patent US20090099029

T1: Bovine, dephosphorylated, Myelin Basic Protein (MBP), P02687
T1 chain: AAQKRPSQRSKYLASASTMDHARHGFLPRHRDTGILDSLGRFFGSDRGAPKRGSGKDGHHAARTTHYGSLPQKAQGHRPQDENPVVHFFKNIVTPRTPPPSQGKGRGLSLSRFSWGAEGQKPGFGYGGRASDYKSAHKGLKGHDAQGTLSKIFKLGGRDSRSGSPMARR

B1: DAPK2 (protein)
chain: MFQASMRSPNMEPFKQQKVEDFYDIGEELGSGQFAIVKKCREKSTGLEYAAKFIKKRQSRASRRGVSREEIEREVSILRQVLHHNVITLHDVYENRTDVVLILELVSGGELFDFLAQKESLSEEEATSFIKQILDGVNYLHTKKIAHFDLKPENIMLLDKNIPIPHIKLIDFGLAHEIEDGVEFKNIFGTPEFVAPEIVNYEPLGLEADMWSIGVITYILLSGASPFLGDTKQETLANITAVSYDFDEEFFSQTSELAKDFIRKLLVKETRKRLTIQEALRHPWITPVDNQQAMVRRESVVNLENFRKQYVRRRWKLSFSIVSLCNHLTRSLMKKVHLRPDEDLRNCESDTEEDIARRKALHPRRRSSTS
B2: STK6(AuroraA) (protein)
chain: MDRSKENCISGPVKATAPVGGPKRVLVTQQFPCQNPLPVNSGQAQRVLCPSNSSQRIPLQAQKLVSSHKPVQNQKQKQLQATSVPHPVSRPLNNTQKSKQPLPSAPENNPEEELASKQKNEESKKRQWALEDFEIGRPLGKGKFGNVYLAREKQSKFILALKVLFKAQLEKAGVEHQLRREVEIQSHLRHPNILRLYGYFHDATRVYLILEYAPLGTVYRELQKLSKFDEQRTATYITELANALSYCHSKRVIHRDIKPENLLLGSAGELKIADFGWSVHAPSSRRTTLCGTLDYLPPEMIEGRMHDEKVDLWSLGVLCYEFLVGKPPFEANTYQETYKRISRVEFTFPDFVTEGARDLISRLLKHNPSQRPMLREVLEHPWITANSSKPSNCQNKESASKQS
B3: CSNK1D(CK1delta) (protein)
chain: MELRVGNRYRLGRKIGSGSFGDIYLGTDIAAGEEVAIKLECVKTKHPQLHIESKIYKMMQGGVGIPTIRWCGAEGDYNVMVMELLGPSLEDLFNFCSRKFSLKTVLLLADQMISRIEYIHSKNFIHRDVKPDNFLMGLGKKGNLVYIIDFGLAKKYRDARTHQHIPYRENKNLTGTARYASINTHLGIEQSRRDDLESLGYVLMYFNLGSLPWQGLKAATKRQKYERISEKKMSTPIEVLCKGYPSEFATYLNFCRSLRFDDKPDYSYLRQLFRNLFHRQGFSYDYVFDWNMLKFGASRAADDAERERRDREERLRHSRNPATRGLPSTASGRLRGTQEVAPPTPLTPTSHTANTSPRPVSGMERERKVSMRLHRGAPVNISSSDLTGRQDTSRMSTSQNSIPFEHHGK
B4: AKT2 (protein)
chain: MNEVSVIKEGWLHKRGEYIKTWRPRYFLLKSDGSFIGYKERPEAPDQTLPPLNNFSVAECQLMKTERPRPNTFVIRCLQWTTVIERTFHVDSPDEREEWMRAIQMVANSLKQRAPGEDPMDYKCGSPSDSSTTEEMEVAVSKARAKVTMNDFDYLKLLGKGTFGKVILVREKATGRYYAMKILRKEVIIAKDEVAHTVTESRVLQNTRHPFLTALKYAFQTHDRLCFVMEYANGGELFFHLSRERVFTEERARFYGAEIVSALEYLHSRDVVYRDIKLENLMLDKDGHIKITDFGLCKEGISDGATMKTFCGTPEYLAPEVLEDNDYGRAVDWWGLGVVMYEMMCGRLPFYNQDHERLFELILMEEIRFPRTLSPEAKSLLAGLLKKDPKQRLGGGPSDAKEVMEHRFFLSINWQDVVQKKLLPPFKPQVTSEVDTRYFDDEFTAQSITITPPDRYDSLGLLELDQRTHFPQFSYSASIRE
B5: EPHA3 (protein)
chain: RFCGYKSKHGADEKRLHFGNGHLKLPGLRTYVDPHTYEDPTQAVHEFAKELDATNISIDKVVGAGEFGEVCSGRLKLPSKKEISVAIKTLKVGYTEKQRRDFLGEASIMGQFDHPNIIRLEGVVTKSKPVMIVTEYMENGSLDSFLRKHDAQFTVIQLVGMLRGIASGMKYLSDMGYVHRDLAARNILINSNLVCKVSDFGLSRVLEDDPEAAYTTRGGKIPIRWTSPEAIAYRKFTSASDVWSYGIVLWEVMSYGERPYWEMSNQDVIKAVDEGYRLPPPMDCPAALYQLMLDCWQKDRNNRPKFEQIVSILDKLIRNPGSLKIITSAAARPSNLLLDQSNVDITTFRTTGDWLNGVWTAHCKEIFTGVEYSSCDTIAKISTDDMKKVGVTVVGPQKKIISSIKALETQSKNGPVPV
B6: CHEK1 (protein)
chain: MAVPFVEDWDLVQTLGEGAYGEVQLAVNRVTEEAVAVKIVDMKRAVDCPENIKKEICINKMLNHENVVKFYGHRREGNIQYLFLEYCSGGELFDRIEPDIGMPEPDAQRFFHQLMAGVVYLHGIGITHRDIKPENLLLDERDNLKISDFGLATVFRYNNRERLLNKMCGTLPYVAPELLKRREFHAEPVDVWSCGIVLTAMLAGELPWDQPSDSCQEYSDWKEKKTYLNPWKKIDSAPLALLHKILVENPSARITIPDIKKDRWYNKPLKKGAKRPRVTSGGVSESPSGFSKHIQSNLDFSPVNSASSEENVKYSSSQPEPRTGLSLWDTSPSYIDKLVQGISFSQPTCPDHMLLNSQLLGTPGSSQNPWQRLVKRMTRFFTKLDADKSYQCLKETCEKLGYQWKKSCMNQVTISTTDRRNNKLIFKVNLLEMDDKILVDFRLSKGDGLEFKRHFLKIKGKLIDIVSSQKIWLPAT
B7: DAPK3(ZIPK) (protein)
chain: MSTFRQEDVEDHYEMGEELGSGQFAIVRKCRQKGTGKEYAAKFIKKRRLSSSRRGVSREEIEREVNILREIRHPNIITLHDIFENKTDVVLILELVSGGELFDFLAEKESLTEDEATQFLKQILDGVHYLHSKRIAHFDLKPENIMLLDKNVPNPRIKLIDFGIAHKIEAGNEFKNIFGTPEFVAPEIVNYEPLGLEADMWSIGVITYILLSGASPFLGETKQETLTNISAVNYDFDEEYFSNTSELAKDFIRRLLVKDPKRRMTIAQSLEHSWIKAIRRRNVRGEDSGRKPERRRLKTTRLKEYTIKSHSSLPPNNSYADFERFSKVLEEAAAAEEGLRELQRSRRLCHEDVEALAAIYEEKEAWYREESDSLGQDLRRLRQELLKTEALKRQAQEEAKGALLGTSGLKRRFSRLENRYEALAKQVASEMRFVQDLVRALEQEKLQGVECGLR
B8: CSNK2A1(CK2alpha1) (protein)
chain: MSGPVPSRARVYTDVNTHRPREYWDYESHVVEWGNQDDYQLVRKLGRGKYSEVFEAINITNNEKVVVKILKPVKKKKIKREIKILENLRGGPNIITLADIVKDPVSRTPALVFEHVNNTDFKQLYQTLTDYDIRFYMYEILKALDYCHSMGIMHRDVKPHNVMIDHEHRKLRLIDWGLAEFYHPGQEYNVRVASRYFKGPELLVDYQMYDYSLDMWSLGCMLASMIFRKEPFFHGHDNYDQLVRIAKVLGTEDLYDYIDKYNIELDPRFNDILGRHSRKRWERFVHSENQHLVSPEALDFLDKLLRYDHQSRLTAREAMEHPYFYTVVKDQARMGSSSMPGGSTPVSSANMMSGISSVPTPSPLGPLAGSPVIAAANPLGMPVPAAAGAQQ
B9: CSNK2A2 (protein)
chain: MPGPAAGSRARVYAEVNSLRSREYWDYEAHVPSWGNQDDYQLVRKLGRGKYSEVFEAINITNNERVVVKILKPVKKKKIKREVKILENLRGGTNIIKLIDTVKDPVSKTPALVFEYINNTDFKQLYQILTDFDIRFYMYELLKALDYCHSKGIMHRDVKPHNVMIDHQQKKLRLIDWGLAEFYHPAQEYNVRVASRYFKGPELLVDYQMYDYSLDMWSLGCMLASMIFRREPFFHGQDNYDQLVRIAKVLGTEELYGYLKKYHIDLDPHFNDILGQHSRKRWENFIHSENRHLVSPEALDLLDKLLRYDHQQRLTAKEAMEHPYFYPVVKEQSQPCADNAVLSSGLTAAR
B10: CSNK1E(CK1eps) (protein)
chain: MELRVGNKYRLGRKIGSGSFGDIYLGANIASGEEVAIKLECVKTKHPQLHIESKFYKMMQGGVGIPSIKWCGAEGDYNVMVMELLGPSLEDLFNFCSRKFSLKTVLLLADQMISRIEYIHSKNFIHRDVKPDNFLMGLGKKGNLVYIIDFGLAKKYRDARTHQHIPYRENKNLTGTARYASINTHLGIEQSRRDDLESLGYVLMYFNLGSLPWQGLKAATKRQKYERISEKKMSTPIEVLCKGYPSEFSTYLNFCRSLRFDDKPDYSYLRQLFRNLFHRQGFSYDYVFDWNMLKFGAARNPEDVDRERREHEREERMGQLRGSATRALPPGPPTGATANRLRSAAEPVASTPASRIQPAGNTSPRAISRVDRERKVSMRLHRGAPANVSSSDLTGRQEVSRIPASQTSVPFDHLGK
B11: EPHA2 (protein)
chain: HRRRKNQRARQSPEDVYFSKSEQLKPLKTYVDPHTYEDPNQAVLKFTTEIHPSCVTRQKVIGAGEFGEVYKGMLKTSSGKKEVPVAIKTLKAGYTEKQRVDFLGEAGIMGQFSHHNIIRLEGVISKYKPMMIITEYMENGALDKFLREKDGEFSVLQLVGMLRGIAAGMKYLANMNYVHRDLAARNILVNSNLVCKVSDFGLSRVLEDDPEATYTTSGGKIPIRWTAPEAISYRKFTSASDVWSFGIVMWEVMTYGERPYWELSNHEVMKAINDGFRLPTPMDCPSAIYQLMMQCWQQERARRPKFADIVSILDKLIRAPDSLKTLADFDPRVSIRLPSTSGSEGVPFRTVSEWLESIKMQQYTEHFMAAGYTAIEKVVQMTNDDIKRIGVRLPGHQKRIAYSLLGLKDQVNTVGIPI
B12: AKT3 (protein)
chain: MSDVTIVKEGWVQKRGEYIKNWRPRYFLLKTDGSFIGYKEKPQDVDLPYPLNNFSVAKCQLMKTERPKPNTFIIRCLQWTTVIERTFHVDTPEEREEWTEAIQAVADRLQRQEEERMNCSPTSQIDNIGEEEMDASTTHHKRKTMNDFDYLKLLGKGTFGKVILVREKASGKYYAMKILKKEVIIAKDEVAHTLTESRVLKNTRHPFLTSLKYSFQTKDRLCFVMEYVNGGELFFHLSRERVFSEDRTRFYGAEIVSALDYLHSGKIVYRDLKLENLMLDKDGHIKITDFGLCKEGITDAATMKTFCGTPEYLAPEVLEDNDYGRAVDWWGLGVVMYEMMCGRLPFYNQDHEKLFELILMEDIKFPRTLSSDAKSLLSGLLIKDPNKRLGGGPDDAKEIMRHSFFSGVNWQDVYDKKLVPPFKPQVTSETDTRYFDEEFTAQTITITPPEKYDEDGMDCMDNERRPHFPQFSYSASGRE

Target: T1, Bovine, dephosphorylated, Myelin Basic …

**Q.** Which “MBP Kinase Activity” value does the source give for B1 here?
**A.** Negative

**Q.** For B2, which “MBP Kinase Activity” value is on record?
**A.** Weak

**Q.** With B3 as the protein, how does the “MBP Kinase Activity” value read?
**A.** Negative

**Q.** Which “MBP Kinase Activity” value does the source give for B4 here?
**A.** Strong

**Q.** How did the “MBP Kinase Activity” value turn out when B5 was run?
**A.** Strong

**Q.** With B6 as the protein, how does the “MBP Kinase Activity” value read?
**A.** Strong

**Q.** How did the “MBP Kinase Activity” value turn out when B7 was run?
**A.** Negative

**Q.** How did the “MBP Kinase Activity” value turn out when B8 was run?
**A.** Strong

**Q.** For B9, which “MBP Kinase Activity” value is on record?
**A.** Negative

**Q.** B10 was tested. Which “MBP Kinase Activity” value did it give?
**A.** Negative

**Q.** How did the “MBP Kinase Activity” value turn out when B11 was run?
**A.** Weak

**Q.** How did the “MBP Kinase Activity” value turn out when B12 was run?
**A.** Strong
